According to US20240368668A1, “SUBSTRATES AND BIOMARKERS OF ADAMTS7” (The Broad Institute, Inc., priority 2021, published 2024):
Square brackets hold non-standard residues; d marks the D form. Ends that are not written are not given here. pGlu = O=C1CC[C@@H](C(=O)O)N1

Molecular target: T1, mouse ADAMTS7 (Mus musculus, UniProt Q68SA9)
T1 construct: Full-length mouse Adamts7 1-1857 (Uniprot Q68SA9, WT or E373Q catalytic mutant); expressed in transfected cells; host or cells: Human Coronary Artery Smooth Muscle Cells (HCA-SMC, Lonza), adenovirus 50 MOI
T1 sequence (Q68SA9 221-1657): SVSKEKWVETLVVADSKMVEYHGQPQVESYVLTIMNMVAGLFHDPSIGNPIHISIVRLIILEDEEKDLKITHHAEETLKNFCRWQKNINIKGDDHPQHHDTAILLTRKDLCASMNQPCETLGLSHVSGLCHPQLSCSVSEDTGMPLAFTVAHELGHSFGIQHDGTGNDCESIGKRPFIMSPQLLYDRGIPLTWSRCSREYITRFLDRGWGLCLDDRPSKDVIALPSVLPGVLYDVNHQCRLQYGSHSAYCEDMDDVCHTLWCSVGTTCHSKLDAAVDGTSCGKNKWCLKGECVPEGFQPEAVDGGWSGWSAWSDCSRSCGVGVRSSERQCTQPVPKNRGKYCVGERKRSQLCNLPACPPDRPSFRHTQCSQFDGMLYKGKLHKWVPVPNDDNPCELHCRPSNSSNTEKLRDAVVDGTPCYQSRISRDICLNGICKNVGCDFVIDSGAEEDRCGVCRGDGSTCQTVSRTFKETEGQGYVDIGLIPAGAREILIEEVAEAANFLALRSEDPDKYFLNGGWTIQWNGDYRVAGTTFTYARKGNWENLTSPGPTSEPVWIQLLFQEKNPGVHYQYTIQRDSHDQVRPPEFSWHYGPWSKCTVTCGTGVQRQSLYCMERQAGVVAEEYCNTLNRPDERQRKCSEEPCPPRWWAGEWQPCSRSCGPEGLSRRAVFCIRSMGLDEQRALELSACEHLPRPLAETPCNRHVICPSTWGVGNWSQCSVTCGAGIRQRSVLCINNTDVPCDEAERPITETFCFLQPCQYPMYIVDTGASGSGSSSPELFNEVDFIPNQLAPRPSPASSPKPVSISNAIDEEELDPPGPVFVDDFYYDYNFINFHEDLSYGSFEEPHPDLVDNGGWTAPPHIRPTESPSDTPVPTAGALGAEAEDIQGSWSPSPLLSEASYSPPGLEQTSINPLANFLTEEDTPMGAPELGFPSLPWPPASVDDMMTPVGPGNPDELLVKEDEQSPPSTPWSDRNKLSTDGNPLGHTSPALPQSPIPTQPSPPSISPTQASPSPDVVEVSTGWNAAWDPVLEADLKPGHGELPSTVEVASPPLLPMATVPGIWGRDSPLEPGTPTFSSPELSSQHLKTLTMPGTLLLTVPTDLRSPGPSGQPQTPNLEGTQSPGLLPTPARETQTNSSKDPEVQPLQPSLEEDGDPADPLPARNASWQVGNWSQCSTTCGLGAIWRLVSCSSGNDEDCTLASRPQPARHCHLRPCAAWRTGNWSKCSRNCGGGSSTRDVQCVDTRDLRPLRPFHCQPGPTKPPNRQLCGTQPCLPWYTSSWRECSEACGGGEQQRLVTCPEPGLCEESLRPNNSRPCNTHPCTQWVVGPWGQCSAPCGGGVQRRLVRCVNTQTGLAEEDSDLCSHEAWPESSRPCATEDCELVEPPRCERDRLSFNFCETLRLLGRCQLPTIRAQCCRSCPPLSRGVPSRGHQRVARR
Experiment: TMT10 TAILS N-terminomics, SMC1 experiment (Ad-mADAMTS7 WT vs EQ vs Luc, technical replicates, trypsin digest)
Type: cell-based
Conditions: TAILS neo-N-terminal peptide abundance; log fold change, Ad-mADAMTS7 WT over Luc
How it was run: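 Full-length mouse ADAMTS7 (WT or E373Q mutant, C-terminal 3xFLAG) or luciferase was transduced via adenovirus, 50 MOI, into HCA-SMC (SMC1, SMC2) or HUVEC. SMC1: pooled media, technical triplicates 400 ug; SMC2: process triplicates 300 ug; HUVEC: process triplicates 200 ug, bFGF2 10 ng/ml.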

| Substance | logFC.mWT.over.Lux |
| --- | --- |
| ACTB_105 (LTEAPLNPKANR; listed as Homo sapiens) | 1.88 |
| ADAM9_69 (VIQAEGKEHIIHLER; listed as Homo sapiens) | 1.45 |
| AEBP1_37 (FLEGFLSELEPEPR; listed as Homo sapiens) | 3.23 |
| ECM1_134 (FGDQSHPEPESWNAAQHCQQDR; listed as Homo sapiens) | 3.02 |
| EFEMP1_124 (AVAGPEMQTGR; listed as Homo sapiens) | 3.84 |
| EFEMP1_125 (VAGPEMQTGR; listed as Homo sapiens) | 1.92 |
| EHBP1L1_298 (TAPTPAPR; listed as Homo sapiens) | 1.01 |
| FBLN2_259 (ALGPPAPVQAKAR; listed as Homo sapiens) | 1.29 |
| FBLN2_260 (LGPPAPVQAKAR; listed as Homo sapiens) | 3.46 |
| FBN1_29 (LEAGNVKETR; listed as Homo sapiens) | 4.70 |
| FBN1_53 (LKGPNVCGSR; listed as Homo sapiens) | 4.89 |
| FN1_36 (MVQPQSPVAVSQSKPGCYDNGKHYQINQQWER; listed as Homo sapiens) | 3.73 |
| FN1_40 (QSPVAVSQSKPGCYDNGKHYQINQQWER; listed as Homo sapiens) | 3.87 |
| FN1_47 ([code q]SKPGCYD[code n]GKHYQINQQWER; not fully specified; listed as Homo sapiens) | 3.08 |
| FN1_281 (SGSGPFTDVR; listed as Homo sapiens) | 2.44 |
| FN1_1143 (LTPGVEYVYTIQVLR; listed as Homo sapiens) | 0.85 |
| FN1_1731 (FTDVDVDSIKIAWESPQGQVSR; listed as Homo sapiens) | 2.59 |
| FN1_2143 (FEEHGFR; listed as Homo sapiens) | 1.11 |
| FN1_2217 (FQDTSEYIISCHPVGTDEEPLQFR; listed as Homo sapiens) | 2.41 |
| GALNT2_31 (LAGGAGGGAGR; listed as Homo sapiens) | 0.76 |
| HEG1_49 (GAGLELQLER; listed as Homo sapiens) | 1.72 |
| HLA−C_52 (VDDTQFVR; listed as Homo sapiens) | 1.14 |
| HSPG2_1937 (SSAGQQVAR; listed as Homo sapiens) | 0.79 |

| Substance | logFC.mWT.over.Lux |
| --- | --- |
| HSPG2_2331 (ANLAYPAGSTQPIR; listed as Homo sapiens) | 2.07 |
| HSPG2_3250 (SPLPWQHR; listed as Homo sapiens) | 1.00 |
| HSPG2_3542 (IAHVELADAGQYR; listed as Homo sapiens) | 0.60 |
| HSPG2_3672 (SFLPLPTIKDAYR; listed as Homo sapiens) | 1.09 |
| HSPG2_3813 (SSGFIGCVR; listed as Homo sapiens) | 0.81 |
| HSPG2_4004 (SAEPLALGR; listed as Homo sapiens) | 0.88 |
| HSPG2_4021 (LNKDGSLR; listed as Homo sapiens) | 0.70 |
| HSPG2_4075 (GCVGEVSVNGKR; listed as Homo sapiens) | 0.77 |
| HSPG2_4133 (DGFKGDLCEHEENPCQLR; listed as Homo sapiens) | 0.63 |
| IGFBP3_32 (AGLGPVVR; listed as Homo sapiens) | 4.06 |
| IGFBP3_200 (FSSESKR; listed as Homo sapiens) | 2.33 |
| IGFBP7_101 (AAGGPGVSGVCVCKSR; listed as Homo sapiens) | 3.99 |
| LOXL1_219 (VASAGVIYPYQPR; listed as Homo sapiens) | 0.99 |
| LOXL2_37 (FQQPAPEYHQPQAPANVAKIQLR; listed as Homo sapiens) | 3.37 |
| LOXL2_38 ([code q]QPAPEYHQPQAPANVAKIQLR; not fully specified; listed as Homo sapiens) | 1.37 |
| LOXL2_318 (AYKPEQPLVR; listed as Homo sapiens) | 0.78 |
| LOX_80 (ANASAQQPR; listed as Homo sapiens) | 2.02 |
| LOX_81 (NASAQQPR; listed as Homo sapiens) | 1.38 |
| LOX_123 (HWFQAGYSTSR; listed as Homo sapiens) | 1.60 |
| LOX_126 (QAGYSTSR; listed as Homo sapiens) | 1.61 |
| LTBP1_393 (LTATNFR; listed as Homo sapiens) | 4.03 |
| LTBP1_540 (HQQVIPHVYPVAAKTQLGR; listed as Homo sapiens) | 2.83 |

Other lines, results leading:

| logFC.mWT.over.Lux | Substance |
| --- | --- |
| 1.09 | ACTB_21 (FAGDDAPR; listed as Homo sapiens) |
| 2.27 | APLP2_579 (ISETPVDVR; listed as Homo sapiens) |
| 3.84 | CCDC80_66 (LEEPNLQPLQR; listed as Homo sapiens) |
| 0.81 | EFHD2_67 (QGIGEPQSPSR; listed as Homo sapiens) |
| 1.87 | FLNA_612 (SVEGPSQAKIECDDKGDGSCDVR; listed as Homo sapiens) |
| 4.79 | FLNA_695 (FTVDAKHGGKAPLR; listed as Homo sapiens) |
| 4.95 | FLNA_1285 (LTQTGGPHVKAR; listed as Homo sapiens) |
| 3.70 | FN1_45 (VSQSKPGCYDNGKHYQINQQWER; listed as Homo sapiens) |
| 3.74 | FN1_282 (GSGPFTDVR; listed as Homo sapiens) |
| 1.70 | FN1_886 (NQESTPVVIQQETTGTPR; listed as Homo sapiens) |
| 1.44 | FN1_1656 (SSSPVTGYR; listed as Homo sapiens) |
| 4.42 | GSN_35 (SQAGAPQGR; listed as Homo sapiens) |
| 1.99 | GSN_413 (HIANVER; listed as Homo sapiens) |
| 2.87 | HSPG2_275 (LLPGSVR; listed as Homo sapiens) |
| 1.93 | HSPG2_2333 (LAYPAGSTQPIR; listed as Homo sapiens) |
| 3.16 | HSPG2_2688 (VADSGEYVCR; listed as Homo sapiens) |
| 0.96 | HSPG2_3647 ([pGlu]GKVKAFAHLQVPER; listed as Homo sapiens) |
| 2.87 | HTRA1_33 (LAAGCPDR; listed as Homo sapiens) |
| 3.19 | IFI30_43 (YKTGNLYLR; listed as Homo sapiens) |
| 2.46 | IGFBP3_31 (SAGLGPVVR; listed as Homo sapiens) |
| 0.87 | LASP1_123 (HEEFEKSR; listed as Homo sapiens) |
| 4.83 | LGALS1_53 (HGDANTIVCNSKDGGAWGTEQR; listed as Homo sapiens) |
| 4.70 | LGALS3BP_447 (FQAPSDYR; listed as Homo sapiens) |
| 0.88 | LOX_58 (LSLGSQYQPQR; listed as Homo sapiens) |
| 3.70 | LOX_124 (WFQAGYSTSR; listed as Homo sapiens) |
| 2.61 | LTBP1_494 (SVQIHQVSR; listed as Homo sapiens) |
